In patent US20240352438A1, “MEANS AND METHODS FOR DETOXIFYING OCHRATOXIN A” (DSM Austria GmbH, priority 2021, published 2024):

Experiment: OTA detoxification activity assay (specific activity, fluorescence reduction ex/em 390/450 nm)
Assay type: biochemical
Details: SEQ ID NO: 1 = 100%
Summary of the method: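 Recombinant enzyme preparation with 200 ng/mL OTA in 100 mM sodium phosphate, at pH 6.0 and pH 7.5, 37° C. Degradation followed as the fall in fluorescence at ex/em 390/450 nm. Specific activity taken from the initial linear slope; one unit degrades 1 μmol OTA per min at a starting OTA of […].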

B1: 257 (protein)
chain: MTTRTRILTAFLSLLAANACAADAAPAAPHTVVLRAARMFDGASGKLVDHPQLTIVGNKIVRIAQGDKAEVPAGAEVVDLGDATLLPGFIDAHVHLSGQSSDNWYGDFFDNMMRFPAEQALYGAYYARITLEAGFTSVRDVGSTDWVALGLRNAIDAGKVPGPRMLVSNYAVGSTGGHADQDPIPPHKLPLAGPLQGVCNGPEECRAAVRYQIKYGANVIKFMPSGGVLSLSDPVDAPELSQDEMNAVIGESHAWGRKVAAHAHGDKAAKMAVAAGVDSIEHGDFIEDDTLRAMKAKNVYLVPTISAIAHVEEKIGTFPPVIAEKGRASAAHLRQTFRHAVQIGVPIALGTDAGVGAHGSNAREFRYMVENGLTPAQALLAGTANAARLLGTFDRVGTLEAGKLADVVAVPGNPIADITVTERPLFVMKDGVVVRRDAVR
modifications: exemplary polypeptide
**Q.** For B1, which “Specific OTA detoxification activities in % compared to the enzyme of SEQ ID NO: 1, pH 6.0” value is on record?
**A.** 34%

**Q.** What about the “Specific OTA detoxification activities in % compared to the enzyme of SEQ ID NO: 1, pH 7.5” value of the same molecule?
**A.** 15%

B2: 265 (protein)
chain: MTTRTRILTAFLSLLAANACAADAAPAAPHTVVLRAARMFDGASGKLVDHPQLTIVGNKIVRIAQGDKAEVPAGAEVVDLGDATLLPGFIDAHVHLSGQSSDNWYPDFFDNMMRFPAEQALYGAYYARITLEAGFTSVRDVGSTDWVALGLRNAIDAGKVPGPRMLVSNYAVGSTGGHADQDPIPPHKLPLAGPLQGVCNGPEECRAAVRYQIKYGANVIKFMPSGGVLSLSDPVDAPELSQDEMNAVIGESHAWGRKVAAHAHGDKAAKMAVAAGVDSIEHGSFIEDDTLRAMKAKNVYLVPTISAIAHVEEKIGTFPPVIAEKGRAAAAHLRQTFRHAVQIGVPIALGTDAGVGAHGSNAREFRYMVENGLTPAQALLAGTANAARLLGTFDRVGTLEAGKLADVVAVPGNPIADITVTERPLFVMKDGVVVRRDAVR
modifications: exemplary polypeptide
**Q.** Which “Specific OTA detoxification activities in % compared to the enzyme of SEQ ID NO: 1, pH 6.0” value does the source give for B2 here?
**A.** 20%

**Q.** What about the “Specific OTA detoxification activities in % compared to the enzyme of SEQ ID NO: 1, pH 7.5” value of the same molecule?
**A.** 11%

B3: 264 (protein)
chain: MTTRTRILTAFLSLLAANACAADAAPAAPHTVVLRAARMFDGASGKLVDHPQLTIVGNKIVRIAQGDKAEVPAGAEVVDLGDATLLPGFIDAHVHLSGQSSDNWRGDFFDNMMRFPAEQALYGAYYARITLEAGFTSVRDVGSTDWVALGLRNAIDAGKVPGPRMLVSNYAVGSTGGHADQDPIPPHKLPLAGPLQGVCNGPEECRAAVRYQIKYGANVIKFMPSGGVLSLSDPVDAPELSQDEMNAVIGESHAWGRKVAAHAHGDKAAKMAVAAGVDSIEHGSFIEDDTLRAMKAKNVYLVPTISAIAHVEEKIGTFPPVIAEKGRAAAAHLRQTFRHAVQIGVPIALGTDAGVGAHGSNAREFRYMVENGLTPAQALLAGTANAARLLGTFDRVGTLEAGKLADVVAVPGNPIADITVTERPLFVMKDGVVVRRDAVR
modifications: exemplary polypeptide
**Q.** Which results are given for B3?
**A.** Specific OTA detoxification activities in % compared to the enzyme of SEQ ID NO: 1, pH 6.0: 46%; Specific OTA detoxification activities in % compared to the enzyme of SEQ ID NO: 1, pH 7.5: 44%

B4: 277 (protein)
chain: MTTRTRILTAFLSLLAANACAADAAPAAPHTVVLRAARMFDGASGKLVDHPQLTIVGNKIVRIAQGDKAEVPAGAEVVDLGDATLLPGFIDAHVHLSGQSSDNWYGDFFDNMMRFPAEQALYGAYYARITLEAGFTSVRDVGSTDWVALGLRNAIDAGKVPGPRMLVSNYAVGSTGGHADQDPIPPHKLPLLGPLQGVCNGPEECRAAVRYQIKYGANVIKFMPSGGVLSLSDPVDAPELSQDEMNAVIGESHAWGRKVAAHAHGDKAAKMAVAAGVDSIEHGSFIEDDTLRAMKAKNVYLVPTISAIAHVEEKIGTFPPVIAEKGRAAAAHLRQTFRHAVQIGVPIALGTDAGVGAHGSNAREFRYMVENGLTPAQALLAGTANAARLLGTFDRVGTLEAGKLADVVAVPGNPIADITVTERPLFVMKDGVVVRRDAVR
modifications: exemplary polypeptide
**Q.** Which results are given for B4?
**A.** Specific OTA detoxification activities in % compared to the enzyme of SEQ ID NO: 1, pH 6.0: 6%; Specific OTA detoxification activities in % compared to the enzyme of SEQ ID NO: 1, pH 7.5: 14%

B5: 271 (protein)
chain: MTTRTRILTAFLSLLAANACAADAAPAAPHTVVLRAARMFDGASGKLVDHPQLTIVGNKIVRIAQGDKAEVPAGAEVVDLGDATLLPGFIDAHVHLSGQSSDNWYGDFFDNMRRFPAEQALYGAYYARITLEAGFTSVRDVGSTDWVALGLRNAIDAGKVPGPRMLVSNYAVGSTGGHADQDPIPPHKLPLAGPLQGVCNGPEECRAAVRYQIKYGANVIKFMPSGGVLSLSDPVDAPELSQDEMNAVIGESHAWGRKVAAHAHGDKAAKMAVAAGVDSIEHGSFIEDDTLRAMKAKNVYLVPTISAIAHVEEKIGTFPPVIAEKGRAAAAHLRQTFRHAVQIGVPIALGTDAGVGAHGSNAREFRYMVENGLTPAQALLAGTANAARLLGTFDRVGTLEAGKLADVVAVPGNPIADITVTERPLFVMKDGVVVRRDAVR
modifications: exemplary polypeptide
**Q.** With B5 as the molecule, how does the “Specific OTA detoxification activities in % compared to the enzyme of SEQ ID NO: 1, pH 6.0” value read?
**A.** 6%

**Q.** And the “Specific OTA detoxification activities in % compared to the enzyme of SEQ ID NO: 1, pH 7.5” value?
**A.** 23%

B6: 266 (protein)
chain: MTTRTRILTAFLSLLAANACAADAAPAAPHTVVLRAARMFDGASGKLVDHPQLTIVGNKIVRIAQGDKAEVPAGAEVVDLGDATLLPGFIDAHVHLSGQSSDNWYGRFFDNMMRFPAEQALYGAYYARITLEAGFTSVRDVGSTDWVALGLRNAIDAGKVPGPRMLVSNYAVGSTGGHADQDPIPPHKLPLAGPLQGVCNGPEECRAAVRYQIKYGANVIKFMPSGGVLSLSDPVDAPELSQDEMNAVIGESHAWGRKVAAHAHGDKAAKMAVAAGVDSIEHGSFIEDDTLRAMKAKNVYLVPTISAIAHVEEKIGTFPPVIAEKGRAAAAHLRQTFRHAVQIGVPIALGTDAGVGAHGSNAREFRYMVENGLTPAQALLAGTANAARLLGTFDRVGTLEAGKLADVVAVPGNPIADITVTERPLFVMKDGVVVRRDAVR
modifications: exemplary polypeptide
**Q.** With B6 as the molecule, how does the “Specific OTA detoxification activities in % compared to the enzyme of SEQ ID NO: 1, pH 6.0” value read?
**A.** 11%

**Q.** And the “Specific OTA detoxification activities in % compared to the enzyme of SEQ ID NO: 1, pH 7.5” value?
**A.** 22%

B7: 276 (protein)
chain: MTTRTRILTAFLSLLAANACAADAAPAAPHTVVLRAARMFDGASGKLVDHPQLTIVGNKIVRIAQGDKAEVPAGAEVVDLGDATLLPGFIDAHVHLSGQSSDNWYGDFFDNMMRFPAEQALYGAYYARITLEAGFTSVRDVGSTDWVALGLRNAIDAGKVPGPRMLVSNYAVGSTSGHADQDPIPPHKLPLAGPLQGVCNGPEECRAAVRYQIKYGANVIKFMPSGGVLSLSDPVDAPELSQDEMNAVIGESHAWGRKVAAHAHGDKAAKMAVAAGVDSIEHGSFIEDDTLRAMKAKNVYLVPTISAIAHVEEKIGTFPPVIAEKGRAAAAHLRQTFRHAVQIGVPIALGTDAGVGAHGSNAREFRYMVENGLTPAQALLAGTANAARLLGTFDRVGTLEAGKLADVVAVPGNPIADITVTERPLFVMKDGVVVRRDAVR
modifications: exemplary polypeptide
**Q.** What does the source list for B7?
**A.** Specific OTA detoxification activities in % compared to the enzyme of SEQ ID NO: 1, pH 6.0: 13%; Specific OTA detoxification activities in % compared to the enzyme of SEQ ID NO: 1, pH 7.5: 30%

B8: 263 (protein)
chain: MTTRTRILTAFLSLLAANACAADAAPAAPHTVVLRAARMFDGASGKLVDHPQLTIVGNKIVRIAQGDKAEVPAGAEVVDLGDATLLPGFIDAHVHLSGQSSDNWNGDFFDNMMRFPAEQALYGAYYARITLEAGFTSVRDVGSTDWVALGLRNAIDAGKVPGPRMLVSNYAVGSTGGHADQDPIPPHKLPLAGPLQGVCNGPEECRAAVRYQIKYGANVIKFMPSGGVLSLSDPVDAPELSQDEMNAVIGESHAWGRKVAAHAHGDKAAKMAVAAGVDSIEHGSFIEDDTLRAMKAKNVYLVPTISAIAHVEEKIGTFPPVIAEKGRAAAAHLRQTFRHAVQIGVPIALGTDAGVGAHGSNAREFRYMVENGLTPAQALLAGTANAARLLGTFDRVGTLEAGKLADVVAVPGNPIADITVTERPLFVMKDGVVVRRDAVR
modifications: exemplary polypeptide
**Q.** For B8, which “Specific OTA detoxification activities in % compared to the enzyme of SEQ ID NO: 1, pH 6.0” value is on record?
**A.** 19%

**Q.** What about the “Specific OTA detoxification activities in % compared to the enzyme of SEQ ID NO: 1, pH 7.5” value of the same molecule?
**A.** 11%

B9: 278 (protein)
chain: MTTRTRILTAFLSLLAANACAADAAPAAPHTVVLRAARMFDGASGKLVDHPQLTIVGNKIVRIAQGDKAEVPAGAEVVDLGDATLLPGFIDAHVHLSGQSSDNWYGDFFDNMMRFPAEQALYGAYYARITLEAGFTSVRDVGSTDWVALGLRNAIDAGKVPGPRMLVSNYAVGSTGGHADQDPIPPHKLPLMGPLQGVCNGPEECRAAVRYQIKYGANVIKFMPSGGVLSLSDPVDAPELSQDEMNAVIGESHAWGRKVAAHAHGDKAAKMAVAAGVDSIEHGSFIEDDTLRAMKAKNVYLVPTISAIAHVEEKIGTFPPVIAEKGRAAAAHLRQTFRHAVQIGVPIALGTDAGVGAHGSNAREFRYMVENGLTPAQALLAGTANAARLLGTFDRVGTLEAGKLADVVAVPGNPIADITVTERPLFVMKDGVVVRRDAVR
modifications: exemplary polypeptide
**Q.** Which “Specific OTA detoxification activities in % compared to the enzyme of SEQ ID NO: 1, pH 6.0” value does the source give for B9 here?
**A.** 32%

**Q.** What about the “Specific OTA detoxification activities in % compared to the enzyme of SEQ ID NO: 1, pH 7.5” value of the same molecule?
**A.** 19%

B10: 258 (protein)
chain: MTTRTRILTAFLSLLAANACAADAAPAAPHTVVLRAARMFDGASGKLVDHPQLTIVGNKIVRIAQGDKAEVPAGAEVVDLGDATLLPGFIDAHVHLSGQSSDNWYGDFFDNMMRFPAEQALYGAYYARITLEAGFTSVRDVGSTDWVALGLRNAIDAGKVPGPRMLVSNYAVGSTGGHADQDPIPPHKLPLAGPLQGVCNGPEECRAAVRYQIKYGANVIKFMPSGGVLSLSDPVDAPELSQDEMNAVIGESHAWGRKVAAHAHGDKAAKMAVAAGVDSIEHGDFIEDDTLRAMKAKNVYLVPTISAIAHVEEKIGTFPPVIAEKGRATAAHLRQTFRHAVQIGVPIALGTDAGVGAHGSNAREFRYMVENGLTPAQALLAGTANAARLLGTFDRVGTLEAGKLADVVAVPGNPIADITVTERPLFVMKDGVVVRRDAVR
modifications: exemplary polypeptide
**Q.** For B10, which “Specific OTA detoxification activities in % compared to the enzyme of SEQ ID NO: 1, pH 6.0” value is on record?
**A.** 29%

**Q.** And the “Specific OTA detoxification activities in % compared to the enzyme of SEQ ID NO: 1, pH 7.5” value?
**A.** 25%
